Laboratory results taken from PMC10517255, “Cysteine Enrichment Mediates Co-Option of Uricase in Reptilian Skin and Transition to Uricotelism” (Molecular Biology and Evolution, 2023).
Changes are numbered by the printed parent chain.

Key:
GgUox [1] = target: T1, GgUox (Gallus gallus, UniProt A0A8V0ZED1); assay: X-ray crystallography, […]-2.[…] Å, reduced and H2O2-oxidized crystals; type: binding; conditions: active site at dimer interface; uncleaved His-tag; space groups P2_12_12_1 and C222_1
T1 construct: gene LOC101747367; uricase-like CDS in pET28 (NheI/XhoI), N-terminal His-tag with thrombin site (uncleaved for crystals)
T1 sequence (A0A8V0ZED1 1-320): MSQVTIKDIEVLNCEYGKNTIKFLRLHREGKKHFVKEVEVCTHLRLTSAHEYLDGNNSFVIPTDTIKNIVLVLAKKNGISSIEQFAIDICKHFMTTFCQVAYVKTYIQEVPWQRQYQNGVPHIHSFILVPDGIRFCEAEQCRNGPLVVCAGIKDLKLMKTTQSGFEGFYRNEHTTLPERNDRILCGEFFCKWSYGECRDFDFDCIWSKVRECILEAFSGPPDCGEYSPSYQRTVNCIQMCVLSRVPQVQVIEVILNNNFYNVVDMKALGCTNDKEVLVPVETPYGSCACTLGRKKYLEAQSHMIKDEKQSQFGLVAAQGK

[2] = target: Gallus gallus Uox (cysteine-rich urate oxidase) (Gallus gallus); assay: atomic force microscopy; particle volume of the enzyme on mica, native or pre-incubated with βME, 100 nM protein in 4 mM HEPES pH 7.4, 10 mM NaCl, 2 mM MgCl2, imaged in air, tapping mode
[3] = target: Gallus gallus Uox (cysteine-rich urate oxidase) (Gallus gallus); assay: SEC; purified GgUox, single peak (supplementary fig. S4B)
[4] = target: Gallus gallus Uox (cysteine-rich urate oxidase) (Gallus gallus); assay: crystal structure; GgUox with uncleaved N-terminal His tag in complex with the inhibitor 8-azaxanthine; space groups C222_(1) and P2_(1)2_(1)2_(1); reduced, and oxidised by a 100 mM H2O2 soak for 15 min
GgUox [5] = target: T2, GgUox (Gallus gallus, UniProt A0A8V0ZED1, Y230H); assay: uricase activity, specific activity; type: biochemical; conditions: activity relative to wild type
T2 construct: gene LOC101747367; uricase-like CDS in pET28 (NheI/XhoI), N-terminal His-tag with thrombin site (uncleaved for crystals)
T2 sequence (A0A8V0ZED1 1-320 Y230H): T1 sequence (A0A8V0ZED1 1-320) with Y230H

DrUox = target: T3, DrUox (Danio rerio, UniProt Q6DG85); assay: stopped flow, single turnover, diode array; type: biochemical; conditions: 35 μM enzyme, 25 μM urate, 100 mM potassium phosphate pH 7.6, 25°C
T3 construct: gene uox; enzyme described in Marchetti et al. 2016; tetrameric, about 150 kDa
T3 sequence (Q6DG85 1-298): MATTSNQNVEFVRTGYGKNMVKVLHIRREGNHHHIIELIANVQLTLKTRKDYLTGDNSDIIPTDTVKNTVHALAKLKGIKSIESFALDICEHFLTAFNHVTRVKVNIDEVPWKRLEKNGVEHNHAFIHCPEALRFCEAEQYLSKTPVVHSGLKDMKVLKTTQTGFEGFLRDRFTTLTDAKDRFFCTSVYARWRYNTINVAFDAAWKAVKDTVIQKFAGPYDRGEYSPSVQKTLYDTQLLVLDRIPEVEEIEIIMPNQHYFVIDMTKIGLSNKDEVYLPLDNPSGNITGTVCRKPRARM

[6] = target: the molecule itself; assay: atomic force microscopy; particle volume of the enzyme on mica, native or pre-incubated with βME, 100 nM protein in 4 mM HEPES pH 7.4, 10 mM NaCl, 2 mM MgCl2, imaged in air, tapping mode
purified protein = substrate: O=c1[nH]c(=O)c2[nH]c(=O)[nH]c2[nH]1; assay: purified protein; type: biochemical, Gallus gallus; conditions: 100 mM potassium phosphate pH 7.6, 25°C, 4.1 µM GgUox, 1 µM HIUase, 2-140 μM urate

## O=c1[nH]c(=O)c2nn[nH]c2[nH]1 [8-azaxanthine]
GgUox [1]
  X-ray crystallography, 1.7-2.1 Å, reduced and H2O2-oxidized crystals: We crystallized GgUox in complex with its AZA inhibitor in two space groups

## Gallus gallus Uox (cysteine-rich urate oxidase) (enzyme)
[2]
  stoichiometry N: 4
[3]
  stoichiometry N: 4
[4]
  stoichiometry N: 4

## O=c1[nH]c(=O)c2[nH]c(=O)[nH]c2[nH]1 [uric acid]
GgUox [5]
  uricase activity, specific activity: we mutated the tyrosine in the active site of GgUox to either histidine (Y230H)
DrUox
  stopped flow, single turnover, diode array: the same experiment was carried out with DrUox for comparison

B1: Danio rerio Uox (enzyme, UniProt Q6DG85 1-298, looked up)
chain: T3 sequence (Q6DG85 1-298)
notes: Danio rerio urate oxidase (DrUox), as in Marchetti et al. 2016; also called DrUox; uricase
[6]
  stoichiometry N: 4

B2: GgUox (Gallus gallus) (protein)
chain: T1 sequence (A0A8V0ZED1 1-320)
notes: uricase-like CDS in pET28 (NheI/XhoI), N-terminal His-tag with thrombin site (uncleaved for crystals)
Purified protein
  Km: 12.5 µM
  kcat: 0.03 s⁻¹
